Reference: the RNAGym collection of RNA variant scans (doi:10.1073/pnas.2313332121)

B1: TPR t1 (parent)
chain: GACCAAUCUGCCCUCAGAGCUCGAGAACAUCUUCGGAUGCAGAGGAGGCAGGCUUCGGUGGCGCGAUAGCGCCAACGUCCUCAACCUCCAAUGCAUCCCACCACAUGAUGAUGCCUGAAGAGCCUUGGUUUUUUG

Variants of: B1
Test: polymerase ribozyme fitness, log enrichment relative to wild type (log ratio); higher = more active; in vitro selection for triplet polymerase activity
Summary of the method: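 In triplicate, a single round of in vitro selection was run on each mutant library, PCR-built and transcribed, covering one subunit of a heterodimeric triplet polymerase ribozyme. Frozen incubation at −7 °C followed annealing with a biotinylated primer, partner subunit and triplets, and extended constructs were then gel-excised, streptavidin-captured and taken through RT-PCR. Fitness is the logarithm of genotype enrichment over wild-type enrichment, from inverse-variance-weighted replicate averages of Illumina-sequenced inputs and outputs. […] only genotypes with ≥10 input reads and ≥1 read per output were kept.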

| Variant | polymerase ribozyme fitness (log ratio) |
| --- | --- |
| C34G A43G C53A G71A A111C C123G | -7.9 |
| U54G C85U U116G | -3.02 |
| A29U C53A | -1.37 |
| U109A G120C | -4 |
| C11U C64U U78C | -0.654 |
| U38A C73G C101A A119U A121U G122U | -2.99 |
| G47A C72A | -0.266 |
| G60A G63U | -3.96 |
| A43G G47C C64U C86G U125G G127C | -3.04 |
| U14A C49G | -2.67 |
| A6U G71U | -0.239 |
| C56U C62U C101U G122A | -2.35 |
| G60U C80G | -4.54 |
| A95U G113U U125A | -3.81 |
| A43G U78A C88U U109G | -7.02 |
| U21A C40G U125A | -1.07 |
| U9A A111U | -1.46 |
| C22A U112A C114G | -1.84 |
| C12U A41U A50U G57C C76G C99U | -7.02 |
| C8A U38G A43C G61C C123A | -4.73 |
| C8U G127C | -1.53 |
| C70U C88U | -0.847 |
| A41U G135U | -2.4 |
| U9G G71U | 0.107 |

| Variant | polymerase ribozyme fitness (log ratio) |
| --- | --- |
| C34A G135U | -3.05 |
| G19A G63A A111G | -1.39 |
| G10U C12A C49U A118U U131G | -1.34 |
| A43C U112A G113C | -1.28 |
| C80U G135U | -0.986 |
| C8U C12A A84C U116C | 0.149 |
| U32C C56U | 0.1 |
| G61C C97U | -2.51 |
| C70A A105C G120C | -5.66 |
| U14G C53A A84C | -2.21 |
| C12U G71A | -0.123 |
| C15A A43U C76G | -3.73 |
| C64A U78G | -6.68 |
| A26G A37U C123U U133A | -2.78 |
| U7A A43C U129G | -4.22 |
| C8U G39C C79U G120U | 1.3 |
| G60U U92A | -3.34 |
| C20U C73U G110U G120U A121G | -3 |
| C11A G71A | -1.67 |
| C12A C56A C80U A84U C89U A119G C123A | -0.802 |
| C12A G48U | -2.61 |
| U7G C73A U92A | -2.35 |
| C15U U96A A119G | 0.622 |
| G57C C79U G110A | -3.76 |

| Variant | polymerase ribozyme fitness (log ratio) |
| --- | --- |
| C3U C22A U54C C72U C79U C82U A100U | -6.11 |
| C56U G60A C98U G117C C124U U130A | -6.06 |
| G45A C73A U133G | -0.489 |
| G51A C86U | -3.18 |
| C15U G93A | -1.99 |
| C3U C22A A74U G77A U106C C114A | -4.34 |
| C15A C49U C72A U132A | -1.5 |
| U33A G120U | -5.15 |
| C11A C53U C56A G63A C76G | -3.79 |
| C72A C82U | 0.305 |
| G48A C73A | -0.973 |
| C20A G45U C53G C88U A111U U125G | -4.56 |
| C3U G10A G45U A74C U81A | -2.98 |
| G10A A37U C53A C56G G69A C88U G120C G122U | -1.99 |
| A91U G128U | -3.95 |
| G19C A37U C124U | -1.48 |
| G42C C53A C85U C114G C124U U133G | -3.5 |
| G61A C62U | -1.86 |
| C62A U81A G93A | -2.69 |
| C72U C73U | -1.09 |
| A16U U116C | -0.734 |
| G71U C114G | -2.81 |
| C12U A66G A74U | -1.17 |
| G61U A95U | -0.221 |

| Variant | polymerase ribozyme fitness (log ratio) |
| --- | --- |
| C4U A43U C56G C89U U112C | -0.836 |
| A27U C88A | -4.4 |
| G61A C89A | -1.25 |
| G42C C49U G63A G120A G128U | -5.69 |
| C85U C124G | 0.923 |
| C8G G63A G127C | -1.12 |
| C62U U133G | -1.15 |
| C73G C80A | -4.88 |
| C34U G63C A111C U132A | -4.98 |
| A41C C73G C85A A118U | -3.17 |
| G44A A121C U125G | 0.065 |
| A37C A46C C124G | 0.609 |
| A68G U106A | -3.22 |
| C34G U59A G117U U129G | -8.01 |
| C3A C53G | -1.72 |
| C49G A95U A111G | -0.422 |
| A29U A41C A119G C123G | -1.43 |
| C11U C15G A27G C94G U109C G110A A119U G120A | -7.62 |
| U9A A91C U92A C104U | -2.18 |
| A5C A18C C123A U130A | -1.87 |
| C31U C86A | -5.09 |
| G48C C49G U54C A95C G117A | -2.24 |
| C22A A27C C56U C114A U125A | -4.58 |
| G61A C73A C123A | -0.908 |

| Variant | polymerase ribozyme fitness (log ratio) |
| --- | --- |
| C101G C102A U130C | -4.99 |
| C56G G63A | -2.75 |
| A6C C8G U92G A121C C123G | 0.289 |
| A6U A24G A37U A43C A66U | -5.69 |
| C12U A37U G60C | -1.06 |
| C8A C13G U14G G48A G77A G128C | -5.17 |
| C15U G48A G57A C86A | -3.37 |
| C3U G19A C53G U87A C124A | -1.53 |
| A41G A50U | -1.71 |
| C11A U116G | -4.36 |
| A26U G47U C64A C85U G107C A108G G110C | -6.9 |
| G52A G61C | -4.29 |
| C3G C40G C72U A121G U130G | -0.331 |
| C8A A111U | -1.79 |
| G44U G110C | -3.92 |
| G39A C49A G122A C123G | 0.869 |
| C56U G69C G71A C79A G113U | -6.83 |
| A95C A108G G110U | -4 |
| C34G A43C G60U | -6.09 |
| G39A G110A | -1.31 |
| C12A C89G G93A | -2.86 |
| A24C A27G | -6.86 |
| U116G G117C | -2.43 |
| C13G G45U C89A G120U U130A | -3.41 |

| Variant | polymerase ribozyme fitness (log ratio) |
| --- | --- |
| A24G G69A | -4.71 |
| C62A C82U | -0.465 |
| C34G G69U | -2.21 |
| A5C C28U G57C | -3.47 |
| A6G C11U A29G G52A C76A C85A U125G | -5.55 |
| C13G C82U U131A | -2.89 |
| C12U A29U G52C C73U | -1.91 |
| C34A A84U | -2.81 |
| C15U A46G G51A C56G U59C G71C U78G U92G C123U | -6.11 |
| C22U G45A A83C | -5.99 |
| A41C C76A C79A U112A U125C | -2.16 |
| C49G C56A | -2.63 |
| C56U C72G U129A | -1.89 |
| C73G C102U A119G | -1.29 |
| C8G C11U C40U A90G C97U U129G | -1.14 |
| A5C A37U G39C C86A C124G | -3.87 |
| A24G G61U | -1.44 |
| C73A C89A A118U | -1.26 |
| G36U U130G | -2.05 |
| G44A G57C G61A U112C G120A G127A | -1.81 |
| A29U G61A C73U | -1.74 |
| C70U U78G U116G | -2.23 |
| C3G G60U U87A | -2.32 |
| C56U C82A U106G G117U | -4.65 |

| Variant | polymerase ribozyme fitness (log ratio) |
| --- | --- |
| G71A U78G A84U | -2.58 |
| A16U | -1.46 |
| G52A C72G | -0.491 |
| G10U U112G | 0.352 |
| U9C C70U G93A | 0.136 |
| G39A G61U | -0.116 |
| G42A G45A A50G G113U U129A G135A | -3.94 |
| C88G C94A A111C U133A | -3.52 |
| G39U A95U | -1.27 |
| C22A G61U | -5.05 |
| U109C | -2.41 |
| A6U U9G G63C C104U C115U G117U | -1.31 |
| G47A A121U | 1.38 |
| U33A G52U U112A | -6.07 |
| A6C C76G U81C C85U C99U | -5.11 |
| A26G G63C | -1.65 |
| A5G G48U G69A C89U C98U A121G | -3.81 |
| C11U G17U G48A C114G | -6.05 |
| U7G A91U | -1.77 |
| G44A G52C G58A G120A | -1.3 |
| C3U A16C G17A U54C U78C A90C | -2.6 |
| C12A C53U C56G G135A | -2.18 |
| U9A G39A C56A G60A | 0.000466 |
